Measured values taken from patent US20240269235A1 (Gilead, published 2024).
Numbering of substitutions follows the chain as printed.

T1: trimeric murine IL-2 receptor (IL-2Rα, IL-2Rβ, and IL-2Rγ) on CTLL-2 cells (murine, UniProt P01590 22-268; P16297 27-539; P34902 23-369)
T1 sequence (looked up) 1: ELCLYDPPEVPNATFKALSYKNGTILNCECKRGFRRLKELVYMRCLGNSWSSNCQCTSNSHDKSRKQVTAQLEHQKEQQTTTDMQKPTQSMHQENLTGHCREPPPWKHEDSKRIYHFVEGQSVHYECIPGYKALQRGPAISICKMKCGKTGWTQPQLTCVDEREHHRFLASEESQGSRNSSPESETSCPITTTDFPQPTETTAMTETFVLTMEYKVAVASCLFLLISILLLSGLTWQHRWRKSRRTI
T1 sequence (looked up) 2: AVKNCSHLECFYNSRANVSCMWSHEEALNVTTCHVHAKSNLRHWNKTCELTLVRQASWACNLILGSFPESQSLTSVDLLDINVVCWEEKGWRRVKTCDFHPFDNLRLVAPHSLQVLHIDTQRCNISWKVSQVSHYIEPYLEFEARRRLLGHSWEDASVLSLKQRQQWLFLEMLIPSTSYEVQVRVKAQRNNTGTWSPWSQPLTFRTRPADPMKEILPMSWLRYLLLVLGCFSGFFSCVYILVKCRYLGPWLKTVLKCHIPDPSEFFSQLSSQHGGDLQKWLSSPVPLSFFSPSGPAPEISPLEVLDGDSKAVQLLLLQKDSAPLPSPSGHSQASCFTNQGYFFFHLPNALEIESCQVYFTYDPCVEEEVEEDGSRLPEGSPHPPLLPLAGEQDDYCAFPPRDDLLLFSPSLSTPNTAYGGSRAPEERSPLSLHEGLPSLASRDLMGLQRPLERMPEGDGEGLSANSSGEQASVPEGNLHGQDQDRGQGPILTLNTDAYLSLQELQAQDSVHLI
T1 sequence (looked up) 3: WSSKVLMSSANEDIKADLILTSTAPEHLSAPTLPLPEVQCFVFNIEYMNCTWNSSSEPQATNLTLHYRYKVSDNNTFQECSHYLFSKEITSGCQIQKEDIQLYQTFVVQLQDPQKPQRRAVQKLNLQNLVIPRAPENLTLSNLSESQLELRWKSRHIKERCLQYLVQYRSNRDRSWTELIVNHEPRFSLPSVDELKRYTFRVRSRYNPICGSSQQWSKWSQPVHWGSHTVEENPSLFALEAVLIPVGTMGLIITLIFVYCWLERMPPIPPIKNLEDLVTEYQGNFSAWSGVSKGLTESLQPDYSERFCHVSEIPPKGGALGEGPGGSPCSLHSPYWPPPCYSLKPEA

T2: human IL-2Rα on Treg cells (CD3+, CD4+, CD25hi, FoxP3+) of human PBMC (human, UniProt P01589 22-272)
T2 sequence (looked up): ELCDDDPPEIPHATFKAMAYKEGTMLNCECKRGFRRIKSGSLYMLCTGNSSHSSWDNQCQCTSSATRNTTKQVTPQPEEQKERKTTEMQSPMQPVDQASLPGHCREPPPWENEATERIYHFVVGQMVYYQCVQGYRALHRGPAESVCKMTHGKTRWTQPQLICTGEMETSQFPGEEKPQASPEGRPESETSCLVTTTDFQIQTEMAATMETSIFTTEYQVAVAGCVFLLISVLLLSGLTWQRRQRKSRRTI

T3: IL-2Rα (recombinant IL-2 receptor α, R&D Systems Cat #: 223-2A/CF), biotinylated (human, UniProt P01589 22-213, limits assumed, biotinylated using sulfo-NHS-LC-LC-Biotin)
T3 construct: Bought reagent; also used here as the IL-2Rα partner of the in-silico analysis of PDB 2B5I (another construct); also called IL-2RA; CD25
T3 sequence (looked up): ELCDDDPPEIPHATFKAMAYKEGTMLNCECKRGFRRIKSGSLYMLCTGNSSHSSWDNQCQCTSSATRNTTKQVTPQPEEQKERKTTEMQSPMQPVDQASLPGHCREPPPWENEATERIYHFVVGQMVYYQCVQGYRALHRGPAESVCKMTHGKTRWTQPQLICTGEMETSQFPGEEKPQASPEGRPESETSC

T4: IL-2Rβ (recombinant IL-2 receptor β, R&D Systems Cat #:224-2B-025/CF), biotinylated (UniProt P14784 27-239, limits assumed, biotinylated using sulfo-NHS-LC-LC-Biotin)
T4 construct: Bought reagent; also called IL-2RB; CD122
T4 sequence (looked up): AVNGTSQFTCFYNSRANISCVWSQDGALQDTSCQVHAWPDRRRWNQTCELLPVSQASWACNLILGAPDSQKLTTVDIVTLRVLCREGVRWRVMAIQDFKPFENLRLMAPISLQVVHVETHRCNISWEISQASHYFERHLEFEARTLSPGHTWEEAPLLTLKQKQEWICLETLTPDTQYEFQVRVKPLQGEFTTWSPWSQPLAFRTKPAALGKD

B1: Fc-IL-2v heterodimer 81.46 (hIL-2v_Δ1-5_R38G_C125S) (Fc fusion)
chain 1: ESKYGPPCPPCPAPEAAGGPSVFLFPPKPKDTLMISRTPEVTCVVVDVSQEDPEVQFNWYVDGVEVHNAKTKPREEQFNSTYRVVSVLTVLHQDWLNGKEYKCKVSNKGLPSSIEKTISKAKGQPREPQVYTLPPSQEEMTKNQVSLWCLVKGFYPSDIAVEWESNGQPENNYKTTPPVLDSDGSFFLYSRLTVDKSRWQEGNVFSCSVMHEALHNHYTQKSLSLSLGGGGGSGGGGSGGGGSGGGGSSTKKTQLQLEHLLLDLQMILNGINNYKNPKLTGMLTFKFYMPKKATELKHLQCLEEELKPLEEVLNLAQSKNFHLRPRDLISNINVIVLELKGSETTFMCEYADETATIVEFLNRWITFSQSIISTLT
chain 2: ESKYGPPCPPCPAPEAAGGPSVFLFPPKPKDTLMISRTPEVTCVVVDVSQEDPEVQFNWYVDGVEVHNAKTKPREEQFNSTYRVVSVLTVLHQDWLNGKEYKCKVSNKGLPSSIEKTISKAKGQPREPQVYTLPPSQEEMTKNQVSLSCAVKGFYPSDIAVEWESNGQPENNYKTTPPVLDSDGSFFLVSRLTVDKSRWQEGNVFSCSVMHEALHNRFTQKSLSLSLGK
notes: hIgG4 knob-in-hole Fc heterodimer, one IL-2v on the knob chain
B2: Fc-IL-2v heterodimer 86.46 (hIL-2v_Δ1-5_F42A_C125S) (Fc fusion)
chain 1: B1 chain 1 with G281R, F285A
chain 2: B1 chain 2
notes: as for B1
B3: Fc-IL-2v heterodimer 90.46 (hIL-2v_Δ1-5_E62A_C125S) (Fc fusion)
chain 1: B1 chain 1 with G281R, E305A
chain 2: B1 chain 2
notes: as for B1
B4: Fc-IL-2v heterodimer 83.46 (hIL-2v_Δ1-5_T41G_C125S) (Fc fusion)
chain 1: B1 chain 1 with G281R, T284G
chain 2: B1 chain 2
notes: as for B1
B5: Fc-IL-2v heterodimer 87.46 (hIL-2v_Δ1-5_Y45G_C125S) (Fc fusion)
chain 1: B1 chain 1 with G281R, Y288G
chain 2: B1 chain 2
notes: as for B1
B6: Fc-IL-2v heterodimer 89.46 (hIL-2v_Δ1-5_E61A_C125S) (Fc fusion)
chain 1: B1 chain 1 with G281R, E304A
chain 2: B1 chain 2
notes: as for B1
B7: mouse surrogate Fc-IL-2v heterodimer 169.250 (IL2v_F56A_Y59G_E76A_C140A) (Fc fusion)
chain 1: GPTIKPCPPCKCPAPNAAGGPSVFIFPPKIKDVLMISLSPIVTCVVVDVSEDDPDVQISWFVNNVEVHTAQTQTHREDYNSTLRVVSALPIQHQDWMSGKEFKCKVNNKDLGAPIERTISKPKGSVRAPQVYVLPPPEEEMTKKQVTLWCMVTDFMPEDIYVEWTNNGKTELNYKNTEPVLDSDGSYFMYSKLRVEKKNWVERNSYSCSVVHEGLHNHHTTKSFSRTPGGGGGSGGGGSGGGGSGGGGSQQQHLEQLLMDLQELLSRMENYRNLKLPRMLTAKFGLPKQATELKDLQCLEDALGPLRHVLDLTQSKSFQLEDAENFISNIRVTVVKLKGSDNTFECQFDDESATVVDFLRRWIAFAQSIISTSPQ
chain 2: GPTIKPCPPCKCPAPNAAGGPSVFIFPPKIKDVLMISLSPIVTCVVVDVSEDDPDVQISWFVNNVEVHTAQTQTHREDYNSTLRVVSALPIQHQDWMSGKEFKCKVNNKDLGAPIERTISKPKGSVRAPQVYVLPPPEEEMTKKQVTLSCAVTDFMPEDIYVEWTNNGKTELNYKNTEPVLDSDGSYFMVSKLRVEKKNWVERNSYSCSVVHEGLHNHHTTKSFSRTPGK
B8: mouse surrogate Fc-IL-2v heterodimer 170.250 (IL2v_R52G_E76A_C140A) (Fc fusion)
chain 1: B7 chain 1 with R278G, A282F, G285Y
chain 2: B7 chain 2

target: T1, trimeric murine IL-2 receptor (IL-2Rα, …); assay: cell-based or functional assay

Row | STAT5 activation of CTLL-2 cells, EC50 | Binder
1 | 0.02 nM | B1
2 | 1 nM | B2
3 | 2 nM | B3
4 | 0.04 nM | B4
5 | 0.2 nM | B5
6 | 0.02 nM | B6

target: T2, human IL-2Rα on Treg cells (CD3+, CD4+, …); assay: cell-based or functional assay

Row | Treg EC50, STAT5 activation (PBMC STAT5 assay) | Binder
7 | 0.07 nM | B1
8 | 0.3 nM | B2
9 | 0.08 nM | B3
10 | < 0.001 nM | B4
11 | 0.03 nM | B5
12 | 0.04 nM | B6

target: T1, trimeric murine IL-2 receptor (IL-2Rα, …); assay: cell-based or functional assay; remark: another data set of the same source

Row | pSTAT5 EC50, STAT5 activation of CTLL-2 cells | Binder
13 | 51.4 nM | B7
14 | 9.6 nM | B8

target: T3, IL-2Rα (recombinant IL-2 receptor α, …); assay: SPR (Biacore), C1 or CM5 chip, biotinylated receptor on neutravidin
Text: (§1) Data for binding of Fc-IL-2 variant fusion proteins to IL-2Rα, IL-2Rβ and IL-2Rβγ heterodimer were collected on a Biacore platform using either C1 or CM5 chips. Neutravidin was immobilized using standard amine coupling methods and used to capture biotinylated receptors. Commercially sourced IL-2Rα (R&D Systems Cat #: 223-2A/CF) and IL-2Rβ receptors (R&D Systems Cat #:224-2B-025/CF) were biotinylated using sulfo-NHS-LC-LC-Biotin, desalted, and then captured on the neutravidin surfaces. […] Distinct purification tags were appended to the C-terminus of each chain. A FLAG epitope tag ([…]; SEQ ID NO: 257) was added at the C-terminus of IL-2Rβ subunit, followed by C-terminal Hiss tag ([…]; SEQ ID NO: 258). An AviTag™ ([…]; SEQ ID NO: 259) motif on the IL-2Rγ subunit allowed for site-specific biotinylation of the heterodimer.
(§2) Fc IL 2 fusion protein variants, Fc protein, and Proleukin were injected at various concentrations over these surfaces. Kinetic data obtained from these injections was used to extract kₒₙ and koff to calculate KD (KD=koff/kₒₙ). Experiments were run at 25° C. in HBS-EP+ running buffer (10 mM HEPES, 150 mM NaCl, 3 mM EDTA, 0.05% Tween20, pH 7.4 with 0.1 mg/ml BSA). Data shown in Table 5 for Fc IL-2 fusion protein variants binding to the indicated IL-2R surfaces were derived from the global fitting of data obtained from 2-5 independent surfaces.

Row | Kd | fold larger effect on reducing IL-2Rα affinity against R38A (heterodimer 82.46) | Binder
15 | 685 nM | 6 fold | B1
16 | 2000 nM |  | B2
17 | 2400 nM |  | B3
18 | 29 nM |  | B4
19 | 269 nM |  | B5
20 | 419 nM |  | B6

target: T4, IL-2Rβ (recombinant IL-2 receptor β, …); assay: as above
Text: as §1, §2

Row | Kd | Binder
21 | 7000 nM | B1
22 | 7100 nM | B2
23 | 8100 nM | B3
24 | 7300 nM | B4
25 | 7000 nM | B5
26 | 8800 nM | B6

target: T5, IL-2Rβγ heterodimer, custom biotinylated Fc fusion protein (human IL-2Rβ 27-240-Fc-FLAG / human IL-2Rγ … (human, site-specific biotinylation at the AviTag)); assay: as above
T5 construct: Extracellular regions fused to IgG1 knob-in-hole Fc subunits with tags; also called IL-2 receptor βγ heterodimer; Fc-IL-2Rβγ
T5 sequence (chain, as listed by the source limits assumed): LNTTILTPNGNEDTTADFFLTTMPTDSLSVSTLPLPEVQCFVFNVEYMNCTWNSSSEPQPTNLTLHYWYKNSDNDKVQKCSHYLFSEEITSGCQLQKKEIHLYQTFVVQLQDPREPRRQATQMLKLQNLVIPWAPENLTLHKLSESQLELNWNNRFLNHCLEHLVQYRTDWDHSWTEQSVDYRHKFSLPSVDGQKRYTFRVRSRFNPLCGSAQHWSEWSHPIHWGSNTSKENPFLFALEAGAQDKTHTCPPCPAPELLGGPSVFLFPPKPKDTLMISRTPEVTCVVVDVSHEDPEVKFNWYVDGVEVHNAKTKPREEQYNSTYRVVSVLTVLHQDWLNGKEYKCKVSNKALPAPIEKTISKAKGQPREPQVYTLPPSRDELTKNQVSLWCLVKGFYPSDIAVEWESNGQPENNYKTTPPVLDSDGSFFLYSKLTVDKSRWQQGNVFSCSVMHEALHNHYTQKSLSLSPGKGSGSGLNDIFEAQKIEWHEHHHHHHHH
Text: as §1, §2

Row | Kd | Binder
27 | 0.071 nM | B1
28 | 0.094 nM | B2
29 | 0.152 nM | B3
30 | 0.15 nM | B4
31 | 0.016 nM | B5
32 | 0.065 nM | B6
